The data set deals with BsrI. Description: cleavage_in_vitro. The conditions noted are these: PS at A in filled-in regions; SDA cycle turnover with Bst polymerase; 60 C, 6 mM MgCl2, 50 mM KCl, pH 7.6.

As to “CCACCTCTGACTTGAGCGTCCCAGTGTCAATACGGCGGAGCCTATGGAGTAACGCC / GCAAAAGGCCAGGAACCGATAAAAGGATGCGTTGCTGGCGTTACTCCATAGGCTCCG [linear SDA BsrI duplex (filled in to 92 bp)]”, the activity was 1 min⁻¹.

For the origin of these results see patent US5648211.
